The target of assay [1] is type X collagen (Homo sapiens) (UniProt Q03692). The note with it: cited from earlier work.
Assay [2] has as its target mouse type IV collagen (mouse). Put plainly: SPR; BIAcore X; collagens immobilised on CM5 chips by amide coupling, FKBP22 injected; 20 °C; HBS-P (10 mM Hepes pH 7.4, 150 mM NaCl, 0.005% Surfactant P20) with 1 mM CaCl2; flow 10 µL/min; steady-state affinity model for type IV collagen - WT FKBP22, Langmuir-binding model for type X collagen - M48K FKBP22. On the technique in general: In SPR one partner is held on a chip, and binding of the other changes the refractive index at the surface.

The target in assay [3] is T1, human recombinant type X collagen (human, UniProt Q03692 19-680).
T1 construct: type X collagen, human, recombinant; source: 293 cells, purified as described previously
The assay is described as above. The note with it: both partners purified.

The text below walks through data of paper PMC6965642, “The novel missense mutation Met48Lys in FKBP22 changes its structure and functions” (Scientific Reports, 2020).

Substitutions are numbered along the chain they refer to. In names and notes the source's numbering stands.

T1 sequence (Q03692 19-680): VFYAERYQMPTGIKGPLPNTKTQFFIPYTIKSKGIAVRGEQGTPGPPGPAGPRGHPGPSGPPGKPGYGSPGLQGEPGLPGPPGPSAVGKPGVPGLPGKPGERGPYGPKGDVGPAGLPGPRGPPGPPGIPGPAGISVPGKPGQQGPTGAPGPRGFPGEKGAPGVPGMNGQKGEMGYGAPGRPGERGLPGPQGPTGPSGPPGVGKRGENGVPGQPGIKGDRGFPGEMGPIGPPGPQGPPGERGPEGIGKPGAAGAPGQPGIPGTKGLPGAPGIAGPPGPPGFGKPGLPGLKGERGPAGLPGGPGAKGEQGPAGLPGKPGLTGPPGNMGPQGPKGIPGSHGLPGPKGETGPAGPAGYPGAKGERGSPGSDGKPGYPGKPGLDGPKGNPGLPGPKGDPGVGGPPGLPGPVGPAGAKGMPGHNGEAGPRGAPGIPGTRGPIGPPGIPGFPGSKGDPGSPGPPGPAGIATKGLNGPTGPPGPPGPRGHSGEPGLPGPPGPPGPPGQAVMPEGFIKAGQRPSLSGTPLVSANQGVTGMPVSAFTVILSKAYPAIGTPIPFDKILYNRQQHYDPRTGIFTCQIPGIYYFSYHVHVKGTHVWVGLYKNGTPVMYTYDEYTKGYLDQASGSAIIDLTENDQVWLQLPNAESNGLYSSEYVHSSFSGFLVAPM
Sequence of type X collagen (Homo sapiens) (Q03692 19-680): as above

The term Kd denotes the concentration at which binding is half-saturated. FKBP22 (from UniProt Q9NWM8): the Kd in assay [1] was 43 µM.

B1: recombinant human wild type FKBP22 (FK506 Binding Protein 22 kDa) (enzyme)
chain: LIPEPEVKIEVLQKPFICHRKTKGGDLMLVHYEGYLEKDGSLFHSTHKHNNGQPIWFTLGILEALKGWDQGLKGMCVGEKRKLIIPPALGYGKEGKGKIPPESTLIFNIDLLEIRNGPRSHESFQEMDLNDDWKLSKDEVKAYLKKEFEKHGAVVNESHHDALVEDIFDKEDEDKDGFISAREFTYKHDEL
For the molecule B1, the Kd in assay [2] came to 310 µM.

B2: recombinant human M48K FKBP22 (Met48Lys) (enzyme)
chain: B1 chain with M28K
notes: The mutation was found in a patient with kEDS; PDB 4MSP is the WT structure (parent); also called mutant FKBP22; source: E. coli BL21 (DE3), solubilised with 2 M urea, purified (Co2+-chelating column, enterokinase cleavage, Phenyl column)
Turning to B2, the Kd in assay [3] was determined as 5.3 ± 4 µM.
